Data reported in patent publication US20100092484A1 (published 2010).

Columns and labels:
human CD44 (on cells) [1] = molecular target: T1, human CD44 (on cells) (human, UniProt P16070 21-742); assay: cell-based or functional assay
human CD44 (on cells) [2] = molecular target: T1, human CD44 (on cells); assay: cell-based or functional assay; remark: listed apart in the source
[3] = molecular target: T2, human CD44-IgG1 fusion protein (extracellular domain of human CD44 fused to human IgG1) (human); assay: ELISA: antibody pre-mixed with human CD44-Ig (0.6 µg/ml); inhibition of CD44-Ig binding to plate-coated hyaluronic acid (HA)
T2 construct: also called human CD44-Ig fusion protein; human CD44-Fc fusion protein
Description: (§1) Human anti-CD44 antibodies were evaluated for their ability to inhibit the interaction between HA (Sigma, Cat. No. H5388) and human CD44 protein (SEQ ID NO:3) as described in EXAMPLE 2.
(§2) Binding assays were conducted in 96 well ELISA assay plates (Immunolux HB Maxisorp 96-well plates, Nunc Cat. No. 442-404). On day one, 100 μl of rooster comb HA diluted in 50 mM Nabicarb buffer, pH 9.6 at 2.5 mg/ml was added to assay wells on the plate and incubate at 4° C. overnight. Approximately, 24 hours later the HA coated plates were washed four times using 300 μl of PBS buffer with 0.05% Tween-20 (Sigma, Cat. No. P1379). The plates were then blocked by adding 200 μl of 3% BSA in PBS to each well and incubated for 2 hours at 37° C. The blocked plates were then washed with PBS with 0.05% Tween-20. […] The mixture was incubated at room temperature for 60 minutes and then transferred to the HA-coated plates and incubate at room temperature for one hour. The plates were washed by PBS with 0.05% Tween-20. Anti-human IgG-HRP (Amersham Biosciences, Piscataway, N.J., State, Cat. No. NA933) diluted 1:500 in 1% BSA (to detect CD44-Ig that is bound to HA) were added to each wells and incubate at room temperature. […] The reactions were then stopped with 50 μl of stop solution and OD₄₅₀ values were measured on a plate reader.

[4] = molecular target: T3, lymphatic vessel endothelial hyaluronan receptor 1 protein (LYVE-1) (R&D, Cat. No. 2089-Ly) (UniProt Q9Y5Y7 24-232, limits assumed); assay: ELISA on plate-coated LYVE-1 (50 ng), anti-human kappa-HRP detection
T3 sequence (looked up): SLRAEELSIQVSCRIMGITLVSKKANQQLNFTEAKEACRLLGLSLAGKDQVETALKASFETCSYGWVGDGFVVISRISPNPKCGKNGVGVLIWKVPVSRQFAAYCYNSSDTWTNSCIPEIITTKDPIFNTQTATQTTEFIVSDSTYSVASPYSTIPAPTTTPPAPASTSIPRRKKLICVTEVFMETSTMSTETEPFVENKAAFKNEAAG
Description: (§3) A 96 well ELISA plate (Immuno Maxisorp plate, Nunc Cat. No. 442-404) was coated with 50 ng CD44-Ig fusion protein or LYVE-1 and incubated overnight at 4° C. The plates were then washed by PBS, 0.05% Tween-20 and blocked by 3% BSA in PBS for two hours at room temperature. […] The ELISA plates were incubated at room temperature for 1.5 hours. […] Plates were washed again, and […] of TMB were added and incubated for 5 to 10 minutes. ELISA reactions were stopped with stop solution and OD450 values were measured by a plate reader.

human CD44 (on cells) [5] = molecular target: T1, human CD44 (on cells); assay: cell-based or functional assay; remark: listed apart in the source
[6] = molecular target: T4, cynomolgus CD44 (on cells) (cynomolgus monkey, UniProt P16070 21-742 (human entry)); assay: cell-based or functional assay
T4 chain: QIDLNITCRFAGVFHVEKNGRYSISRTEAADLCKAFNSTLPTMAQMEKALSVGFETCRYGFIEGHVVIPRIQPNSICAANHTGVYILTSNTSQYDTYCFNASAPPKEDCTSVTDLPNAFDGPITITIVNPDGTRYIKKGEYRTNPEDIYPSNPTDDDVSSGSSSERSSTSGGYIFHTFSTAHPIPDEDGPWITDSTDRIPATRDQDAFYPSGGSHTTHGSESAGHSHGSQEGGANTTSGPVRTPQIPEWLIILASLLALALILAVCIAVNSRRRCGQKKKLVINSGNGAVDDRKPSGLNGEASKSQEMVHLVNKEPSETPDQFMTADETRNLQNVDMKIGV

[7] = molecular target: T2, human CD44-IgG1 fusion protein …; assay: ELISA on plate-coated CD44-Ig against plate-coated LYVE-1
Description: as §3

[8] = molecular target: T2, human CD44-IgG1 fusion protein …; assay: ELISA on plate-coated CD44-Ig (50 ng), anti-human kappa-HRP detection
Description: as §3

[9] = molecular target: T2, human CD44-IgG1 fusion protein …; assay: BIAcore SPR, human CD44-Fc fusion immobilised on a CM5 chip, antibody as analyte
Description: Surface plasmon resonance was used to measure the molecular interaction on a CM5 sensor chip coated with human CD44-Fc fusion protein (12 μg/ml, 10 mM Acetate, pH 4.0) on the surface. Anti-CD44 Abs at concentration of 5, 3, 2, 1, 0.5 and 0.25 μg/ml were screened by direct method. Human IgG1 and IgG2 standards were used to check nonspecific and background binding. Initial portion of the association and dissociation phase of the curves are used to calculate affinity and rate constants and is reported in TABLE 17.

[10] = molecular target: T4, cynomolgus CD44 (on cells); assay: cell-based or functional assay
human CD44 (on cells) [11] = molecular target: T1, human CD44 (on cells); assay: cell-based or functional assay; remark: listed apart in the source
[12] = molecular target: T2, human CD44-IgG1 fusion protein …; assay: BIAcore 2000 SPR, human CD44-Ig immobilised on a CM-5 chip, antibody 100 to 0.1 ug/ml as analyte
Description: Human CD44-Ig (55 RU, 86 RU) and cyno CD44-Ig (99 RU, 116 RU) were immobilized to CM-5 chips at a concentration of 10 ug/ml in 10 mM Na Acetate pH 3.5. […] The chip was then regenerated with 50 mM NaOH and washed with HBS-EP (BIAcore 22-0512-44). Analysis was carried out on the Biacore 2000. Data was analyzed using BIAEvaluation™ software (n=2).

human CD44 (on cells) [13] = molecular target: T1, human CD44 (on cells); assay: FACS equilibrium binding analysis on 300-19 cells transduced with human CD44; printed as 'binding constant'
Description: The 300-19 cells which were transduced with retroviral vector encoding human CD44 protein and were washed two times by PBS. […] After 3 hours the cells were washed twice with FACS buffer. The cells were resuspended into 250 μl of 1% paraformaldehyde, (Electron Microscopy Science, Ft. Washington, Pa., Cat. No. 15710). The tubes were read using Becton Dickinson FACSCalibur and the data was analyzed using CellQuest Pro (Becton Dickinson).

[14] = molecular target: T2, human CD44-IgG1 fusion protein …; assay: ELISA: antibody pre-mixed with human CD44-Ig (0.6 µg/ml); inhibition of CD44-Ig binding to plate-coated hyaluronic acid (HA, a polysaccharide)
Description: as §1, §2

human CD44 (on cells) [15] = molecular target: T1, human CD44 (on cells); assay: FACS competition against labelled anti-CD44 antibody MEM-85 on cells bearing human CD44; cells: 300-19 cells transfected with human CD44 per legend paragraph 42, but the range 0.2 to 20 µg/ml is that of the human peripheral T cell study in paragraph 322

B1: anti-CD44 monoclonal antibody 10C8.2.3 (antibody, human IgG4, kappa, V domains shown)
VH: EVQLMESGGGLVKPGGSLRLSCAASGFTFSSYSMNWVRQAPGKGLEWVSSITVRSSYIYYADSVKGRFTISRDNAKNSLYLQMNSLRAEDTAVYYCARVLAIAVPGTSYYYYGMDVWGQGTTVTVSS
VL: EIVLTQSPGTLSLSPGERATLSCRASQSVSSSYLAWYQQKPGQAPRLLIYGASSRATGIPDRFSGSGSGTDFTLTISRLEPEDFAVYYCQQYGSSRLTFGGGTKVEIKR
In the case of B1, the “IC50 of IL-1β release from purified human PBMC stimulated by HA” value (“IC50 of IL-1β release” for short) (human CD44 (on cells) [1]) is reported as 0.4 µg/mL, the “IC50 of reduction of CD44 surface expression on human peripheral CD3+ T cells (FACS)” value (human CD44 (on cells) [2]) is reported as over 20 µg/mL and the IC50 [3] is reported as 0.64 µg/mL.

B2: anti-CD44 monoclonal antibody 14G9.B8.B4 (antibody, human IgG1, kappa, V domains shown)
VH: QVQLVQSGAEVKKPGASVKVSCKASGYTFTNYAMHWVRQAPGQRLEWMGWINTGNGNTKYSQKFQGRVTITRDTSASTAYMELSSLRSEDTAVYYCARFYSGSGSPWGQGTLVTVSS
VL: not shown
B2: no binding (tested: 10 µg/ml) [4].

B3: 2D1 WT/H38Q (mutated antibody 2D1.A3.D12: wild-type heavy chain, light chain H38Q) (antibody, human IgG1, kappa, V domains shown)
VH: QVQLVQSGAEVKKPGASVKVSCKASGYIFTSYAMHWVRQAPGQRLEWMGWINAAIGSTKYSQKFQGRVTITRDTSASTAYMELSSLRSEDTAVYYCARDGWEDYYYHGMDVWGQGTTVTVSS
VL: DIQMTQSPSSVSASVGDRVTITCRASQGISSWLAWYQQKPGKAPKLLIYAASSLQSGVPSRFSGSGSGTDFTLTISSLQPEDFATYYCQQANNFPWTFGQGTKVEIKR
B3 was tested, and the “IC50 of IFN-γ release from human peripheral blood activated by anti-CD3 and anti-CD28 antibodies” value (human CD44 (on cells) [5]) was 2.45 µg/mL and the “IC50 of IL-2 release from human peripheral blood activated by anti-CD3 and anti-CD28 antibodies” value (human CD44 (on cells) [5]) was 0.46 µg/mL.

B4: anti-CD44 monoclonal antibody 2D1.A3.D12 (antibody, human IgG1, kappa, V domains shown)
VH: QVQLVQSGAEVKKPGASVKVSCKASGYIFTSYAMHWVRQAPGQRLEWMGWINAAIGSTKYSQKFQGRVTITRDTSASTAYMELSSLRSEDTAVYYCARDGWEDYYYHGMDVWGQGTTVTVSS
VL: DIQMTQSPSSVSASVGDRVTITCRASQGISSWLAWYQHKPGKAPKLLIYAASSLQSGVPSRFSGSGSGTDFTLTISSLQPEDFATYYCQQANNFPWTFGQGTKVEIKR
In the case of B4, the “IC50 of IL-1β release” value (human CD44 (on cells) [1]) is reported as 0.23 µg/mL, the “IC50 of reduction of CD44 surface expression on cynomolgus peripheral CD3+ T cells (FACS)” value [6] is reported as over 20 µg/mL and the “IC50 of reduction of CD44 surface expression on human peripheral CD3+ T cells (FACS)” value (human CD44 (on cells) [2]) is reported as over 20 µg/mL. For the same binder, the “fold selectivity for CD44 over LYVE-1” value [7] was over 100 fold, the binding result [4] was “no binding (tested: 10 µg/ml)” and the EC50 [8] was 0.024 µg/mL. For the same binder, the Kd [9] was 2.01 nM, the koff [9] was 0.000653 s⁻¹ and the IC50 [3] was 0.33 µg/mL.

B5: anti-CD44 monoclonal antibody 1A9.A6.B9 (antibody, human IgG2, kappa, V domains shown)
VH: QVQLVESGGGVVQPGRSLRLSCAASGFTFSSYGMHWVRQAPGKGLEWVAVIWYDGSNKFYADSVKGRFTISRDNSKNTLYLQMNSLRAEDTAVYYCARRSDYRGYYGMDVWGQGTTVTVSS
VL: EIVLTQSPATLSLSPGERATLSCRASQSVINYLAWYQQKPGQAPRLLIYDASNRASGIPARFSGSGSGTDFTLTISSLEPEDFAVYYCQQRRNWPLTFGGGTKVEIKR
notes: also called mAb 1A9.A6.B9
In the case of B5, the “IC50 of IL-1β release” value (human CD44 (on cells) [1]) is reported as 0.83 µg/mL, the “IC50 of IFN-γ release from human peripheral blood activated by anti-CD3 and anti-CD28 antibodies” value (human CD44 (on cells) [5]) is reported as 2.46 µg/mL and the “IC50 of IL-2 release from human peripheral blood activated by anti-CD3 and anti-CD28 antibodies” value (human CD44 (on cells) [5]) is reported as 0.58 µg/mL. The “IC50 of reduction of CD44 surface expression on cynomolgus peripheral CD3+ T cells (FACS)” value [6] was 0.82 µg/mL, the “IC50 of reduction of CD44 surface expression on human peripheral CD3+ T cells (FACS)” value (human CD44 (on cells) [2]) was 2.8 µg/mL and the “IC50 of reduction of CD44 expression on cynomolgus peripheral blood T cells (FACS)” value [10] was 1.1 µg/mL. For the same binder, the “IC50 of reduction of CD44 expression on human peripheral blood B cells (FACS)” value (human CD44 (on cells) [11]) was 2.4 µg/mL, the “IC50 of reduction of CD44 expression on human peripheral blood T cells (FACS)” value (human CD44 (on cells) [11]) was 2.6 µg/mL and the “IC50 of reduction of CD44 expression on human peripheral blood monocytes (FACS)” value (human CD44 (on cells) [11]) was 3.3 µg/mL. The “fold selectivity for CD44 over LYVE-1” value [7] was over 100 fold, the binding result [4] was “no binding (tested: 10 µg/ml)” and the EC50 [8] was 0.011 µg/mL. For the same binder, the Kd [9] was 0.6 nM, the koff [9] was 0.000576 s⁻¹ and the Kd [12] was 0.051 nM. For the same binder, the koff [12] was 0.00039 s⁻¹, the Kd (human CD44 (on cells) [13]) was 6.8 nM and the IC50 [14] was 0.41 µg/mL. The “IC50 (read off the curve)” value (human CD44 (on cells) [15]) was about 3 µg/mL.
